What was measured:
human C3b (human) [1] = target: human C3b (human) (UniProt P01024); assay: SPR; Biacore T200; human C3b amine-coupled; multicycle kinetics, serial 2-fold dilutions of peptide, 120 s injection, 180 s dissociation, regeneration 1 M NaCl; 25 °C, HBST pH 7.4; Langmuir 1:1 fit, KD = kd/ka; mean of 3 experiments
human C3b (human) [2] = target: human C3b (human) (UniProt P01024); assay: SPR; Biacore T200; human C3b amine-coupled; 25 °C, HBST pH 7.4; KD determined as steady state affinity
human C3b (human) [3] = target: human C3b (human) (UniProt P01024)
human C3b (human) [4] = target: human C3b (human) (UniProt P01024); assay: SPR; Biacore T200; human C3b amine-coupled; single-cycle kinetics, 5 increasing concentrations (0.5-40 nM), final dissociation 100-240 min; 25 °C, HBST pH 7.4; global Langmuir 1:1 fit; mean of 3 experiments
human C3b (human) [5] = target: human C3b (human) (UniProt P01024); remark: listed apart in the source

| Substance | Kd (human C3b (human) [1]) | koff (human C3b (human) [1]) | kon (human C3b (human) [1]) | also measured |
| --- | --- | --- | --- | --- |
| Cp01 Arg11Ser analog (peptide) | 529 nM | 0.16 s⁻¹ | 330000 M⁻¹ s⁻¹ |  |
| Cp01 Asp6Asn analog (peptide) | 219 nM | 0.11 s⁻¹ | 540000 M⁻¹ s⁻¹ |  |
| Cp01 Asp6Glu analog (peptide) | 528 nM | 0.18 s⁻¹ | 380000 M⁻¹ s⁻¹ |  |
| Cp01 aIle3 analog (peptide) |  |  |  | Kd (human C3b (human) [2]): 545 nM |
| Cp05 Ile3 analog (peptide) | 1.5 nM | 0.002 s⁻¹ | 1.14e+06 M⁻¹ s⁻¹ |  |
| Cp40 aIle3 analog (peptide) |  |  |  | Kd (human C3b (human) [4]): 15.6 nM; koff (human C3b (human) [4]): 0.007 s⁻¹; kon (human C3b (human) [4]): 460000 M⁻¹ s⁻¹ |
| compstatin analog Cp01 (peptide) |  |  |  | IC50 of inhibition of alternative pathway complement activation (AP ELISA, diluted normal human serum; the target in serum is C3) (human C3b (human) [3]): 1.4 µM; IC50 of inhibition of classical pathway complement activation (CP ELISA, diluted normal human serum; the target in serum is C3) (human C3b (human) [3]): 20 µM |
| compstatin analog Cp40 (peptide) |  |  |  | IC50 of inhibition of classical pathway complement activation (CP ELISA, 5% human serum) (human C3b (human) [5]): 158 nM; Kd (human C3b (human) [4]): 0.7 nM; koff (human C3b (human) [4]): 0.001 s⁻¹; kon (human C3b (human) [4]): 1.76e+06 M⁻¹ s⁻¹ |
| compstatin analog Cp60 (peptide) |  |  |  | IC50 of inhibition of classical pathway complement activation (CP ELISA, 5% human serum) (human C3b (human) [5]): 97 nM; Kd (human C3b (human) [4]): 0.08 nM; koff (human C3b (human) [4]): 0.0001 s⁻¹; kon (human C3b (human) [4]): 1.76e+06 M⁻¹ s⁻¹; target residence (human C3b (human) [4]): > 100 min |

Further lines, with some results ahead:

| Kd (human C3b (human) [1]) | koff (human C3b (human) [1]) | kon (human C3b (human) [1]) | Substance | also measured |
| --- | --- | --- | --- | --- |
| 502 nM | 0.15 s⁻¹ | 300000 M⁻¹ s⁻¹ | Cp01 Arg11Lys analog (peptide) |  |
| 609 nM | 0.18 s⁻¹ | 310000 M⁻¹ s⁻¹ | Cp01 Asp6Ser analog (peptide) |  |
| 552 nM | 0.11 s⁻¹ | 200000 M⁻¹ s⁻¹ | Cp01 Val3Leu analog (peptide) |  |
| 19.8 nM | 0.017 s⁻¹ | 880000 M⁻¹ s⁻¹ | Cp01-V3I (peptide) | IC50 of inhibition of alternative pathway complement activation (AP ELISA, diluted normal human serum; the target in serum is C3) (human C3b (human) [3]): 0.2 µM; IC50 of inhibition of classical pathway complement activation (CP ELISA, diluted normal human serum; the target in serum is C3) (human C3b (human) [3]): 0.43 µM |
| 46.8 nM | 0.014 s⁻¹ | 300000 M⁻¹ s⁻¹ | compstatin analog Cp05 (peptide) |  |

From PMC13181761, “New Analogs of the Compstatin Family of Clinical Complement Inhibitors with Low Picomolar Target Affinity” (Journal of Medicinal Chemistry, 2026)
